Test [1] concerns the target T1, biotin-hAng2-His (sinobiological, 10691-H07H) (human, UniProt O15123 19-496, biotin label, position not stated).
T1 construct: Bought reagent; also called Human ANG2-his; human ANG2
T1 sequence (looked up): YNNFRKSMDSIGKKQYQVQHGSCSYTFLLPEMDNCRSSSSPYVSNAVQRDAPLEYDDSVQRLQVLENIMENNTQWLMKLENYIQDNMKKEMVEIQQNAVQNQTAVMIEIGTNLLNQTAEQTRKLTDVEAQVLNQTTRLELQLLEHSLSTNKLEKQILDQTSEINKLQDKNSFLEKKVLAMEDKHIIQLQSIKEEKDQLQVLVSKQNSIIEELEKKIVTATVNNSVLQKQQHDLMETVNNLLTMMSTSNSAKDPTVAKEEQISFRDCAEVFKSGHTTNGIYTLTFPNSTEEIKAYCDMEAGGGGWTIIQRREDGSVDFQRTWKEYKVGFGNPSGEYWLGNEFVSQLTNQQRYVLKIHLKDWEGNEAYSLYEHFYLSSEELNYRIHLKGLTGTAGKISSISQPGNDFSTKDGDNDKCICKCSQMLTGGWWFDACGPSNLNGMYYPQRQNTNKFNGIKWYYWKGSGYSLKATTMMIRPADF
The test can be described thus: ELISA, biotin-hAng2-His captured on streptavidin plate, OD450. How it is done:
(§1) The plate was coated with streptavidin (abcam, ab123480) at a concentration of 1 ng/μl, 100 μl per well overnight at 4° C., and then the supernatant was removed. 250 μl 5% skimmed milk powder was added for blocking at 37° C. for 1 h, and the plate was washed with a washing machine for 3 times. 0.5 ng/μl biotin-hAng2-His (sinobiological, 10691-H07H) was added and incubated at 37° C. for 1 h. The plate was washed with a washing machine for 3 times, and 100 μl 1:1 diluted phage supernatant was added and incubated at 37° C. for 1 h. The plate was washed with a washing machine for 3 times, and 100 μl 1:10000 diluted anti-M13-HRP (GE, 27-9421-01) was added to each well and incubated at 37° C. for 1 h. The plate was washed with a washing machine for 3 times, and 100 μl TMB was added to each well for color development. After 5-10 min, 100 μl 1 M H₂SO₄ was added to each well to stop the color development, and the OD450 value was measured with a microplate reader.
A general note: An ELISA detects its analyte on a solid surface through an enzyme-linked reagent.

Test [2] addresses T2, human ANG2 with human Fc tag (huANG2-Fc) (human, biotin label (Dojindo kit LK03, position not stated) in Test Examples 3 and 4; unlabelled in Test Example 5).
T2 construct: It starts at YNNFRK, without a signal peptide; also called bio-huANG2-Fc; human Ang2-Fc
The test can be described thus: competition ELISA: Tie2-Fc coated, biotin-huANG2-Fc 0.15 ug/ml premixed with antibody; blocking of ANG2 binding to Tie2. How it is done:
Specific methods: the ELISA plate was coated with Tie2-Fc (SEQ ID NO: 2, 3 μg/ml dissolved in PBS, 100 μl/well) overnight at 4° C. and the coating solution was removed, 5% skimmed milk blocking solution diluted with PBS was added at 200 μl/well and incubated in a 37° C. incubator for 2 h for blocking. After the blocking was completed, the blocking solution was discarded and the plate was washed with PBST buffer (PBS containing 0.05% tween-20, pH 7.4) for 5 times. […] The solution was mixed well and then incubated at 37° C. for 15 min, added to the ELISA plate and incubated at 37° C. for 1 h. After the incubation was completed, the reaction solution in the ELISA plate was discarded and the plate was washed 5 times with PB ST. Then 1:4000 diluted streptavidin-peroxidase polymer (Sigma, 52438-250UG) was added at 100 μl/well and incubated at 37° C. for 1 h. After washing the plate 5 times with PBST, 100 μl/well TMB chromogenic substrate (KPL, 52-00-03) was added and incubated at room temperature for 3-10 min, and 1 M H₂SO₄ was added at 100 μl/well to stop the reaction.

The next test addresses T3, human ANG1 (RD,923-AN) (human, UniProt Q15389 20-498, limits assumed).
T3 sequence (looked up): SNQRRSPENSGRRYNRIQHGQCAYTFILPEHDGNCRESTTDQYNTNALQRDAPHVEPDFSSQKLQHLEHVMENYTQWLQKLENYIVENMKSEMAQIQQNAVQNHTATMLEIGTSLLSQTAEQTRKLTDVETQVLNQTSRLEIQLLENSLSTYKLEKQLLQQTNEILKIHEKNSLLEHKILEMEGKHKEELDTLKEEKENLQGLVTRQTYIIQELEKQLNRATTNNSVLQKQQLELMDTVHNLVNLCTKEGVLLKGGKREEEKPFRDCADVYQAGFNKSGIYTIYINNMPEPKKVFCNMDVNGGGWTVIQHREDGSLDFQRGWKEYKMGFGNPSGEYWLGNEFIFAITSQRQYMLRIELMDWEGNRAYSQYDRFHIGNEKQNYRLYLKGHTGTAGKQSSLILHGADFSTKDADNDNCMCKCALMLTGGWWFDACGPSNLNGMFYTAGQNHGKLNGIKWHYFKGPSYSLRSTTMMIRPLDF
The test can be described thus: ELISA, plate coated with human ANG1, OD450. Here is the method:
as §1, with “human ANG1 (RD,923-AN)” for “streptavidin (abcam, ab123480)”, “C. The” for “C., and then the”, “removed and” for “removed.”, “blocking” for “blocking at 37° C. for 1 h, and the plate was washed with a washing machine for 3 times. 0.5 ng/μl biotin-hAng2-His (sinobiological, 10691-H07H) was added and incubated”, “M13-HRP” for “anti-M13-HRP (GE, 27-9421-01)”

B1: Llama-derived single domain antibody nano14 (VHH)
VHH: DVQLQESGGGLVQPGGSLRLSCAASGFTFDDFGMSWVRQAPGKGLEWVSSITWNGGSTYYADSVKGRFTISRDNAKNTVYLQMNSLKPEDTAIYYCNADHPQGYWGQGTQVTVSS
B1: the half-maximal effective concentration (EC50 (read off the curve)) in test [1] was around 0.08 nM. This molecule also displayed an IC50 in test [2] of 0.0393 nM. In addition, the binding result with human ANG1 (RD,923-AN) is “no binding (tested: 100 nM)”.

B2: Llama-derived single domain antibody nano15 (VHH)
VHH: DVQLQESGGGLVQPGGSLRLSCAASGFTFNSYAMSWVRQAPGKGLEWVSTINSGGGRTGYADSVKGRFTISRDNAKNTLYLQMNSLKPEDTAIYYCNADHPQGYWGQGTQVTVSS
As to B2, the “EC50 (read off the curve)” value in test [1] was around 0.06 nM. In test [2], this molecule showed an IC50 of 0.0281 nM. Besides, the binding result with human ANG1 (RD,923-AN) is on record as “no binding (tested: 100 nM)”.

In general, EC50 (read off the curve) refers to the concentration giving half of the maximal effect. Higher therefore signals weaker potency. Usually IC50 stands for the concentration that inhibits the measured activity by half. The low end stands for higher potency, the high end for lower potency.

For the origin of these results see patent US20220185875A1 (JIANGSU HENGRUI MEDICINE, published 2022).
